Test results from article PMC6746701, “A phyB-PIF1-SPA1 kinase regulatory complex promotes photomorphogenesis in Arabidopsis” (Nature Communications, 2019).

Target: the molecule itself
Experiment: native gel or EMSA; 5 µg holoprotein on a native 6% PAGE gel, 4 °C, 100 V, 3 h, Coomassie; dimerisation

Protein | binding result
phyB-GFP ΔC holoprotein (Pichia pastoris purified) (domain or fragment, Arabidopsis, UniProt P14713 1-1092, looked up, holoprotein (chromophore bound), phytochrome B (phyB), Arabidopsis, residues 1-1092 (lacks the last 80 amino acids); source: Pichia pastoris, purified; not shown: GFP, C-terminal, kept) MVSGVGGSGGGRGGGRGGEEEPSSSHTPNNRRGGEQAQSSGTKSLRPRSNTESMSKAIQQYTVDARLHAVFEQSGESGKSFDYSQSLKTTTYGSSVPEQQITAYLSRIQRGGYIQPFGCMIAVDESSFRIIGYSENAREMLGIMPQSVPTLEKPEILAMGTDVRSLFTSSSSILLERAFVAREITLLNPVWIHSKNTGKPFYAILHRIDVGVVIDLEPARTEDPALSIAGAVQSQKLAVRAISQLQALPGGDIKLLCDTVVESVRDLTGYDRVMVYKFHEDEHGEVVAESKRDDLEPYIGLHYPATDIPQASRFLFKQNRVRMIVDCNATPVLVVQDDRLTQSMCLVGSTLRAPHGCHSQYMANMGSIASLAMAVIINGNEDDGSNVASGRSSMRLWGLVVCHHTSSRCIPFPLRYACEFLMQAFGLQLNMELQLALQMSEKRVLRTQTLLCDMLLRDSPAGIVTQSPSIMDLVKCDGAAFLYHGKYYPLGVAPSEVQIKDVVEWLLANHADSTGLSTDSLGDAGYPGAAALGDAVCGMAVAYITKRDFLFWFRSHTAKEIKWGGAKHHPEDKDDGQRMHPRSSFQAFLEVVKSRSQPWETAEMDAIHSLQLILRDSFKESEAAMNSKVVDGVVQPCRDMAGEQGIDELGAVAREMVRLIETATVPIFAVDAGGCINGWNAKIAELTGLSVEEAMGKSLVSDLIYKENEATVNKLLSRALRGDEEKNVEVKLKTFSPELQGKAVFVVVNACSSKDYLNNIVGVCFVGQDVTSQKIVMDKFINIQGDYKAIVHSPNPLIPPIFAADENTCCLEWNMAMEKLTGWSRSEVIGKMIVGEVFGSCCMLKGPDALTKFMIVLHNAIGGQDTDKFPFPFFDRNGKFVQALLTANKRVSLEGKVIGAFCFLQIPSPELQQALAVQRRQDTECFTKAKELAYICQVIKNPLSGMRFANSLLEATDLNEDQKQLLETSVSCEKQISRIVGDMDLESIEDGSFVLKREEFFLGSVINAIVSQAMFLLRDRGLQLIRDIPEEIKSIEVFGDQIRIQQLLAEFLLSIIRYAPSQEWVEIHLSQLSKQMADGFAAIRTEFRMACP | binds
phyB-GFP FL holoprotein (Pichia pastoris purified) (receptor, Arabidopsis, UniProt P14713 1-1172, looked up, holoprotein (chromophore bound), phytochrome B (phyB), Arabidopsis, full length; the host named for this assay is Pichia pastoris; source: Pichia pastoris, purified; not shown: GFP, C-terminal, kept) MVSGVGGSGGGRGGGRGGEEEPSSSHTPNNRRGGEQAQSSGTKSLRPRSNTESMSKAIQQYTVDARLHAVFEQSGESGKSFDYSQSLKTTTYGSSVPEQQITAYLSRIQRGGYIQPFGCMIAVDESSFRIIGYSENAREMLGIMPQSVPTLEKPEILAMGTDVRSLFTSSSSILLERAFVAREITLLNPVWIHSKNTGKPFYAILHRIDVGVVIDLEPARTEDPALSIAGAVQSQKLAVRAISQLQALPGGDIKLLCDTVVESVRDLTGYDRVMVYKFHEDEHGEVVAESKRDDLEPYIGLHYPATDIPQASRFLFKQNRVRMIVDCNATPVLVVQDDRLTQSMCLVGSTLRAPHGCHSQYMANMGSIASLAMAVIINGNEDDGSNVASGRSSMRLWGLVVCHHTSSRCIPFPLRYACEFLMQAFGLQLNMELQLALQMSEKRVLRTQTLLCDMLLRDSPAGIVTQSPSIMDLVKCDGAAFLYHGKYYPLGVAPSEVQIKDVVEWLLANHADSTGLSTDSLGDAGYPGAAALGDAVCGMAVAYITKRDFLFWFRSHTAKEIKWGGAKHHPEDKDDGQRMHPRSSFQAFLEVVKSRSQPWETAEMDAIHSLQLILRDSFKESEAAMNSKVVDGVVQPCRDMAGEQGIDELGAVAREMVRLIETATVPIFAVDAGGCINGWNAKIAELTGLSVEEAMGKSLVSDLIYKENEATVNKLLSRALRGDEEKNVEVKLKTFSPELQGKAVFVVVNACSSKDYLNNIVGVCFVGQDVTSQKIVMDKFINIQGDYKAIVHSPNPLIPPIFAADENTCCLEWNMAMEKLTGWSRSEVIGKMIVGEVFGSCCMLKGPDALTKFMIVLHNAIGGQDTDKFPFPFFDRNGKFVQALLTANKRVSLEGKVIGAFCFLQIPSPELQQALAVQRRQDTECFTKAKELAYICQVIKNPLSGMRFANSLLEATDLNEDQKQLLETSVSCEKQISRIVGDMDLESIEDGSFVLKREEFFLGSVINAIVSQAMFLLRDRGLQLIRDIPEEIKSIEVFGDQIRIQQLLAEFLLSIIRYAPSQEWVEIHLSQLSKQMADGFAAIRTEFRMACPGEGLPPELVRDMFHSSRWTSPEGLGLSVCRKILKLMNGEVQYIRESERSYFLIILELPVPRKRPLSTASGSGDMMLMMPY | binds
